{
  "source": "patent US20130202618A1",
  "about": "(PROGENICS PHARMACEUTICALS, published 2013)",
  "assay_in_all_cases": "cell-based or functional assay",
  "key": {"[1]": {"biological_target": "T1, Clostridium difficile toxin B (strain VPI 10463) (Clostridium difficile strain VPI 10463, UniProt P18177 2-2366)", "T1 sequence (P18177 2-2366)": "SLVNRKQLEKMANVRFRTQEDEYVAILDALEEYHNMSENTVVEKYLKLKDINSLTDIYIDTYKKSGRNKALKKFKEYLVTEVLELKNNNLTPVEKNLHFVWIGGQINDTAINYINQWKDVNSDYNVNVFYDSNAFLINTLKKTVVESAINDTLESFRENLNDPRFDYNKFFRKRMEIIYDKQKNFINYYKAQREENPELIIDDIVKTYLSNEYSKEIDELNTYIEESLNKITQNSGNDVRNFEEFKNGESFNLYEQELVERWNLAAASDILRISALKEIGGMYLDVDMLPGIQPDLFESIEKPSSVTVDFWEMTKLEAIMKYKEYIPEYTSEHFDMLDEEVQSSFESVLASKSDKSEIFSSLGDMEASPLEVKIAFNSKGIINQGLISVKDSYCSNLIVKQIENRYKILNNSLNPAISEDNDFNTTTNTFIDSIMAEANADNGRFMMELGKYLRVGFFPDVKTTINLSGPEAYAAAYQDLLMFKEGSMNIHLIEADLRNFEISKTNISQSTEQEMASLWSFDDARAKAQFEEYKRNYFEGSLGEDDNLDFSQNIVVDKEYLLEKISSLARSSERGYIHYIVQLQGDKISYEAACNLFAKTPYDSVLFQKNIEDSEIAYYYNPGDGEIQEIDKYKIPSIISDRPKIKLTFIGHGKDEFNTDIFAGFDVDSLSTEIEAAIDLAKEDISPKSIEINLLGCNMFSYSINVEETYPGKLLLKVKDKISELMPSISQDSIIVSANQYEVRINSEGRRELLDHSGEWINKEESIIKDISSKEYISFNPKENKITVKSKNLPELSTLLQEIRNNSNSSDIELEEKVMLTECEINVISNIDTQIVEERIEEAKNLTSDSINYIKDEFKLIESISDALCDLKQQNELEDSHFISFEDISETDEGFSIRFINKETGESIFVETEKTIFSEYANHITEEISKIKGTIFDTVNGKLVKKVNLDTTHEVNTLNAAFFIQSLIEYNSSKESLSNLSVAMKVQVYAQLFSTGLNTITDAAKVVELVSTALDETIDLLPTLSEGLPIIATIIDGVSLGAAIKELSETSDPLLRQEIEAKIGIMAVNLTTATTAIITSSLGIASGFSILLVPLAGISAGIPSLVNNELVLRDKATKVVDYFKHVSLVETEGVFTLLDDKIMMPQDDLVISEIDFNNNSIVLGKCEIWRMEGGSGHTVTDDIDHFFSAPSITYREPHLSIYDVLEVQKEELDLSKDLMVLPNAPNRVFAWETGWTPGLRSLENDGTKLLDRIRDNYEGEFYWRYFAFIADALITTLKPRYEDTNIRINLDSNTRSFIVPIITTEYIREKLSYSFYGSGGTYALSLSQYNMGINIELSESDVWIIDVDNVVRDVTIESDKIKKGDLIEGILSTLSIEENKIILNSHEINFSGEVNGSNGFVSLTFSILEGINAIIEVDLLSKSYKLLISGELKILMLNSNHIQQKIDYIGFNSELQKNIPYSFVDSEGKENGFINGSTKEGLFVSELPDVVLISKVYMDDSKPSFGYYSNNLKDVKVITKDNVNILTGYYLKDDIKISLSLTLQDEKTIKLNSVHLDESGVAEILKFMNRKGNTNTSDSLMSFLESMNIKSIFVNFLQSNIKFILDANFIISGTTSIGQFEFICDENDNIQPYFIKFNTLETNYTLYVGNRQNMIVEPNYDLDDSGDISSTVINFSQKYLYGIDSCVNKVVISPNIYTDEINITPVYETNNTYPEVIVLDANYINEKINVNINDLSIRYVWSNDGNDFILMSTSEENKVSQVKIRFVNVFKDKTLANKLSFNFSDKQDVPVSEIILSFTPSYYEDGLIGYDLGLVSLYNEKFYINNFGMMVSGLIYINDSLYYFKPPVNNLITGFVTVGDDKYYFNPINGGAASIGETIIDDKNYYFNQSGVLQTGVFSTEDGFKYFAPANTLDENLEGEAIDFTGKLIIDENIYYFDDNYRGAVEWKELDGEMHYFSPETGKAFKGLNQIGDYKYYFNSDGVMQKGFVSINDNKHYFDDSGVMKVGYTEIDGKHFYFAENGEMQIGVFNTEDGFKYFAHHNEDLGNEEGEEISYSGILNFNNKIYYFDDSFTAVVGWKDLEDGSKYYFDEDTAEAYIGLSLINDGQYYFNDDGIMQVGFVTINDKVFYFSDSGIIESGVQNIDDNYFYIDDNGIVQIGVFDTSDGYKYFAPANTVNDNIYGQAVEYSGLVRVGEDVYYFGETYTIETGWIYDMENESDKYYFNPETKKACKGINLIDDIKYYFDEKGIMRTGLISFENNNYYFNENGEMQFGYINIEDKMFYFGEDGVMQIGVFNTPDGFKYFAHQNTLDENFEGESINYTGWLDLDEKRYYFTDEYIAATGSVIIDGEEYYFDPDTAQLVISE"}, "[2]": {"biological_target": "T1, Clostridium difficile toxin B (strain …)", "remark": "listed apart in the source"}, "[3]": {"biological_target": "C. difficile toxin A from strain Pitt 07 (ribotype 078) (Clostridium difficile strain Pitt 07)"}, "[4]": {"biological_target": "T2, C. difficile toxin A from strain CCL678 (ribotype 027, BI/NAP1/027) (Clostridium difficile strain CCL678)"}, "[5]": {"biological_target": "T3, C. difficile toxin A from strain Montreal 7.1 (ribotype 027, BI/NAP1/027) (Clostridium difficile strain Montreal …)"}, "[6]": {"biological_target": "T4, C. difficile toxin A from strain Montreal 5 (ribotype 027, BI/NAP1/027) (Clostridium difficile strain Montreal 5)"}, "[7]": {"biological_target": "Clostridium difficile toxin A (strain VPI 10463) (Clostridium difficile strain VPI 10463, UniProt P16154 1-2710)", "sequence (P16154 whole entry)": "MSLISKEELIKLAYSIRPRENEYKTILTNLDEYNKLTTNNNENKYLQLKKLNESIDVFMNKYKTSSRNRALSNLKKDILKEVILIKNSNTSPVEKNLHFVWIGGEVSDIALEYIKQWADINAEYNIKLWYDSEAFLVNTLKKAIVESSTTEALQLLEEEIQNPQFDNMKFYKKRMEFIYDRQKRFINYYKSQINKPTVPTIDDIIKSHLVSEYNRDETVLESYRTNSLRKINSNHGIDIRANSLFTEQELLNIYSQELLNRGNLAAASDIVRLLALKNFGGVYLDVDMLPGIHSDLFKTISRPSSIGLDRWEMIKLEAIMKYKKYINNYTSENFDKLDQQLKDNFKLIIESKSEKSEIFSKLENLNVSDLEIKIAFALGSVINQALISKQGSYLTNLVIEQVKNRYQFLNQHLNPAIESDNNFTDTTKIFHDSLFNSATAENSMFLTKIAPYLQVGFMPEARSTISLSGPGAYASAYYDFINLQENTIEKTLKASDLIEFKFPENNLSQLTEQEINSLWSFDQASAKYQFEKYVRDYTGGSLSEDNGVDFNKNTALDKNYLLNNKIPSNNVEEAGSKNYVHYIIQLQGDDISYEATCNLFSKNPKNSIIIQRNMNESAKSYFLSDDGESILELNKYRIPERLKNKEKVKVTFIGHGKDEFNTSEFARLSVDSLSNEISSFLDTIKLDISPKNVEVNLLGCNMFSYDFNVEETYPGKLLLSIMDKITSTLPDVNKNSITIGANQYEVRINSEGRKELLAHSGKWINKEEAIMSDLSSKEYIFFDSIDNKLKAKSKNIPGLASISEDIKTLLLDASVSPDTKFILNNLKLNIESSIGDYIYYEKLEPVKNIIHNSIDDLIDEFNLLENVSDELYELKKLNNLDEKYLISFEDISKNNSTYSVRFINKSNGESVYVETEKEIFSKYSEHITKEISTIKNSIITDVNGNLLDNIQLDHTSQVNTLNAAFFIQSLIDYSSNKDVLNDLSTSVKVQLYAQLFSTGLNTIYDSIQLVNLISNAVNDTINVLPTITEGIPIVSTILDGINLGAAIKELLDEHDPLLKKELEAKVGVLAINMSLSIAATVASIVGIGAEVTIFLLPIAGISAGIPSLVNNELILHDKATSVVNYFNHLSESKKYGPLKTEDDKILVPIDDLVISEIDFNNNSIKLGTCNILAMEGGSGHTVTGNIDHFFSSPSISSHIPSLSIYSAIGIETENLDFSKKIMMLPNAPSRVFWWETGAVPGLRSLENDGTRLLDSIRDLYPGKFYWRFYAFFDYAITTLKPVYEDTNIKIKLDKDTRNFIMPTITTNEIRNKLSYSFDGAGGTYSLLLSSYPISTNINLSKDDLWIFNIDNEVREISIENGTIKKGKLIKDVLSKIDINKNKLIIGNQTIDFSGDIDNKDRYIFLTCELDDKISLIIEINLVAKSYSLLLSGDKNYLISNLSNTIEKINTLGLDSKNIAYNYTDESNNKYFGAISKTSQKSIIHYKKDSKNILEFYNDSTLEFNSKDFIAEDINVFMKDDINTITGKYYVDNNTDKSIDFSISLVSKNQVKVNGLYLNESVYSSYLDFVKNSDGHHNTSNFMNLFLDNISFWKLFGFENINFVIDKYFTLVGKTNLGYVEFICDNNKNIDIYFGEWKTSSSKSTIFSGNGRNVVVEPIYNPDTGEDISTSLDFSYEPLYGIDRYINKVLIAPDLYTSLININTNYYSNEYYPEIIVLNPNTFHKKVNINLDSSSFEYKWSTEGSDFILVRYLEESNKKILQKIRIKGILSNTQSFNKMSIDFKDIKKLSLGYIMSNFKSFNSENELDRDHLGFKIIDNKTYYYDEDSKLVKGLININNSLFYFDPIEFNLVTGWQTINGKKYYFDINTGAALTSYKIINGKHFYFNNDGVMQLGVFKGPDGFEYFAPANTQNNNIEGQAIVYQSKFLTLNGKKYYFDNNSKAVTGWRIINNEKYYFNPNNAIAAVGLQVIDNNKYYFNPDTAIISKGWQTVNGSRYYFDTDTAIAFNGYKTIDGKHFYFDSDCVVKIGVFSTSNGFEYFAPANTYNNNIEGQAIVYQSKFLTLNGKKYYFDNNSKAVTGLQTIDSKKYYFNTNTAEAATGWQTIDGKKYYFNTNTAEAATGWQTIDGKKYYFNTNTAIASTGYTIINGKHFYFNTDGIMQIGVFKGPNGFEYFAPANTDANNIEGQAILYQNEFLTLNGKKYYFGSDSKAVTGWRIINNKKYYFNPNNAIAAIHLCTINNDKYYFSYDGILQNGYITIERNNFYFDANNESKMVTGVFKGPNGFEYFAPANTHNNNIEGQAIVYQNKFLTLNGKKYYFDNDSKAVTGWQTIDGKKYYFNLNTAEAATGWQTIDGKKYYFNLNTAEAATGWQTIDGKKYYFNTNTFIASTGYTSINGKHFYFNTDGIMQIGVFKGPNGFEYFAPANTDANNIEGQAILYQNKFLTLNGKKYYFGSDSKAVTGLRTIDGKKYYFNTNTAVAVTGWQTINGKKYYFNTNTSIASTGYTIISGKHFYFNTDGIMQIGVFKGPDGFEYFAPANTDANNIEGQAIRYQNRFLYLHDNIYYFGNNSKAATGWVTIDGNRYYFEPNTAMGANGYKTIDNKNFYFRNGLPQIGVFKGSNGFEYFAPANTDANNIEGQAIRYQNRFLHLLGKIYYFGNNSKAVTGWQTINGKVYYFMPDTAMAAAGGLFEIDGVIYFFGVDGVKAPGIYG"}, "[8]": {"biological_target": "T5, C. difficile toxin A from strain Pitt 45 (ribotype 027, BI/NAP1/027) (Clostridium difficile strain Pitt 45)"}, "[9]": {"biological_target": "T6, C. difficile toxin A from strain HMC553 (ribotype 027, BI/NAP1/027) (Clostridium difficile strain HMC553)"}, "[10]": {"biological_target": "C. difficile toxin A from strain 630 (ATCC BAA-1382, ribotype 012) (Clostridium difficile strain 630)"}, "[11]": {"biological_target": "C. difficile toxin A from strain CCL14137 (ribotype 001) (Clostridium difficile strain CCL14137)"}, "[12]": {"biological_target": "C. difficile toxin A from strain UVA17 (ribotype 002) (Clostridium difficile strain UVA17)"}, "[13]": {"biological_target": "C. difficile toxin A from strain Pitt 2 (ribotype 001) (Clostridium difficile strain Pitt 2)"}, "[14]": {"biological_target": "C. difficile toxin A from strain 545 (ATCC 43596, ribotype 012) (Clostridium difficile strain 545 (ATCC …))"}, "[15]": {"biological_target": "C. difficile toxin A from strain MH5 (ribotype 001) (Clostridium difficile strain MH5)"}, "[16]": {"biological_target": "C. difficile toxin A from strain UVA30/TL42 (ribotype 014) (Clostridium difficile strain UVA30/TL42)"}, "[17]": {"biological_target": "T7, C. difficile toxin A from strain CD196 (ribotype 027, BI/NAP1/027) (Clostridium difficile strain CD196)"}, "[18]": {"biological_target": "T2, C. difficile toxin A from strain CCL678 …", "remark": "listed apart in the source"}, "[19]": {"biological_target": "T3, C. difficile toxin A from strain …", "remark": "listed apart in the source"}, "[20]": {"biological_target": "T4, C. difficile toxin A from strain …", "remark": "listed apart in the source"}, "[21]": {"biological_target": "T5, C. difficile toxin A from strain Pitt …", "remark": "listed apart in the source"}, "[22]": {"biological_target": "T6, C. difficile toxin A from strain HMC553 …", "remark": "listed apart in the source"}, "[23]": {"biological_target": "T7, C. difficile toxin A from strain CD196 …", "remark": "listed apart in the source"}},
  "data": [
    {"binder": "humanized anti-C. difficile toxin B monoclonal antibody PA-41 (antibody, V domains shown) VH: QVQLVQSGAEVKKPGASVKVSCKASGYPFTNYFMHWVRQAPGQRLEWIGRINPYNGATSYSLNFRDKATITLDKSASTAYMELSSLRSEDTAVYYCARSTITSPLLDFWGQGTLVTVSS VL: EIVLTQSPATLSLSPGERATLSCRASQSVGTSIHWYQQKPGQAPRLLIKFASESISGIPARFSGSGSGTDFTLTISSLEPEDFAVYYCQQSNKWPFTFGQGTKLEIKR", "values": [
      {"measurement": "EC50, neutralization of supernatant cytotoxicity on CHO-K1 cells", "setting": "[1]", "value": 0.0077, "unit": "nM"},
      {"measurement": "EC50, neutralization of toxin B cytotoxicity on CHO-K1 cells (toxin B 2 pg/mL)", "setting": "[2]", "value": 6000, "unit": "nM"},
      {"measurement": "EC50, neutralization on IMR-90 cells", "setting": "[2]", "value": 5000, "unit": "nM"}
    ]},
    {"binder": "humanized anti-C. difficile toxin A monoclonal antibody PA-50 (antibody, V domains shown) VH: QVQLVQSGAEVKKPGASVKVSCKASGYTFTDYNMDWVRQAPGQRLEWIGDINPKYDIIGHNPKFMGKATITVDKSASTAYMELSSLRSEDTAVYYCARSDRGWYFDVWGQGTLVTVSS VL: EIVLTQSPATLSLSPGERATLSCRASSSVNYMNWYQQKPGQAPRPRIYATSNLASGVPARFSGSGSGTDYTLTISSLEPEDFAVYYCQQWSSRTFGGGTKLEIKR", "values": [
      {"measurement": "EC50, neutralization of supernatant cytotoxicity on T-84 cells", "setting": "[3]", "value": 0.032, "unit": "nM"},
      {"measurement": "EC50, neutralization of supernatant cytotoxicity on T-84 cells", "setting": "[4]", "value": 0.029, "unit": "nM"},
      {"measurement": "EC50, neutralization of supernatant cytotoxicity on T-84 cells", "setting": "[5]", "value": 0.031, "unit": "nM"},
      {"measurement": "EC50, neutralization of supernatant cytotoxicity on T-84 cells", "setting": "[6]", "value": 0.029, "unit": "nM"},
      {"measurement": "EC50, neutralization of supernatant cytotoxicity on T-84 cells", "setting": "[7]", "value": 0.02, "unit": "nM"},
      {"measurement": "EC50, neutralization of supernatant cytotoxicity on T-84 cells", "setting": "[8]", "value": 0.043, "unit": "nM"},
      {"measurement": "EC50, neutralization of supernatant cytotoxicity on T-84 cells", "setting": "[9]", "value": 0.029, "unit": "nM"},
      {"measurement": "EC50, neutralization of supernatant cytotoxicity on T-84 cells", "setting": "[10]", "value": 0.054, "unit": "nM"},
      {"measurement": "EC50, neutralization of supernatant cytotoxicity on T-84 cells", "setting": "[11]", "value": 0.039, "unit": "nM"},
      {"measurement": "EC50, neutralization of supernatant cytotoxicity on T-84 cells", "setting": "[12]", "value": 0.026, "unit": "nM"},
      {"measurement": "EC50, neutralization of supernatant cytotoxicity on T-84 cells", "setting": "[13]", "value": 0.027, "unit": "nM"},
      {"measurement": "EC50, neutralization of supernatant cytotoxicity on T-84 cells", "setting": "[14]", "value": 0.038, "unit": "nM"},
      {"measurement": "EC50, neutralization of supernatant cytotoxicity on T-84 cells", "setting": "[15]", "value": 0.127, "unit": "nM"},
      {"measurement": "EC50, neutralization of supernatant cytotoxicity on T-84 cells", "setting": "[16]", "value": 0.051, "unit": "nM"},
      {"measurement": "EC50, neutralization of supernatant cytotoxicity on T-84 cells", "setting": "[17]", "value": 0.061, "unit": "nM"},
      {"measurement": "neutralization activity on T-84 cells relative to comparator mAb CDA-1", "setting": "[18]", "value": "> 100", "unit": "fold"},
      {"measurement": "neutralization activity on T-84 cells relative to comparator mAb CDA-1", "setting": "[19]", "value": "> 100", "unit": "fold"},
      {"measurement": "neutralization activity on T-84 cells relative to comparator mAb CDA-1", "setting": "[20]", "value": "> 100", "unit": "fold"},
      {"measurement": "neutralization activity on T-84 cells relative to comparator mAb CDA-1", "setting": "[21]", "value": "> 100", "unit": "fold"},
      {"measurement": "neutralization activity on T-84 cells relative to comparator mAb CDA-1", "setting": "[22]", "value": "> 100", "unit": "fold"},
      {"measurement": "neutralization activity on T-84 cells relative to comparator mAb CDA-1", "setting": "[23]", "value": "> 100", "unit": "fold"}
    ]}
  ]
}
